Data published in patent publication US20140213513A1 (Sanofi, priority 2012, published 2014).
*1 amine or outer side, *2 acyl side, *3 side chain or, on linkers, in order; H or OH if unused. Where no end group is shown, it is not given here. Side-chain parts run from the residue outwards. [ ]: non-standard residue; d: D form. The star is where a group is joined. γGlu = O=C(O)[C@H](CCC(=O)[*:2])N[*:1]; Stearoyl = CCCCCCCCCCCCCCCCCC(=O)*; Palmitoyl = CCCCCCCCCCCCCCCC(=O)*; Aib = CC(C)(N)C(=O)O

T1: human GIP receptor (human, UniProt P48546 22-466)
T1 sequence (looked up): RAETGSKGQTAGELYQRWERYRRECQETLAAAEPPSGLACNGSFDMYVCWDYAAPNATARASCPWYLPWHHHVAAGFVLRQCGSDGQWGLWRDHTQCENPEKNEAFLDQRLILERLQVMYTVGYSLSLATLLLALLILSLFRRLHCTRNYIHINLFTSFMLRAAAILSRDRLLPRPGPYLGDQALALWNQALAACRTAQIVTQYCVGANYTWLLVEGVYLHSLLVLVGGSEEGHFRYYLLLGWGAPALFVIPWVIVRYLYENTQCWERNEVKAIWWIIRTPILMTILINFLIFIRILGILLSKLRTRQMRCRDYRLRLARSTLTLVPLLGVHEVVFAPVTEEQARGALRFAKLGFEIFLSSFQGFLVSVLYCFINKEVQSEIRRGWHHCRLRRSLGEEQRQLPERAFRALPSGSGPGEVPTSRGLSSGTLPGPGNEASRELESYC


Columns and labels:
Test in all cases: cell-based or functional assay
human glucagon receptor = human glucagon receptor (human, UniProt P47871 26-477)
Chain of human glucagon receptor (P47871 26-477): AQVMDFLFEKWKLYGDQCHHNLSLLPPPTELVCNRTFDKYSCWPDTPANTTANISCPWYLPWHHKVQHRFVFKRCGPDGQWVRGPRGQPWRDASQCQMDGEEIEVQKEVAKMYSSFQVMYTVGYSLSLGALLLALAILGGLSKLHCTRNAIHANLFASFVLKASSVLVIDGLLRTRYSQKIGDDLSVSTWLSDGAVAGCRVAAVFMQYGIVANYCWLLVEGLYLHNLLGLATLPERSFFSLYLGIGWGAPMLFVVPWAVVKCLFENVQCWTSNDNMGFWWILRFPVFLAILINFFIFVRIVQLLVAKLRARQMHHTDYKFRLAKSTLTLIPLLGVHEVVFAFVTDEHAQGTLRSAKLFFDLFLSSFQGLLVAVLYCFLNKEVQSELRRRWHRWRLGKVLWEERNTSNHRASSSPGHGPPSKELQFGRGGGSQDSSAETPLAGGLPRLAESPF

human GLP-1 receptor = human GLP-1 receptor (human, UniProt P43220 24-463)
human GIP receptor = molecular target: T1, human GIP receptor

Binder | EC50 hGLUC R (human glucagon receptor) [nM] | EC50 hGLP-1 R (human GLP-1 receptor) [nM] | EC50 hGIP R (human GIP receptor) [nM]
Y[Aib]EGTFTSDLSIQK([γGlu-Palmitoyl])EEQAAHEFIEWLKR[Aib]GPSSGAPPPS-NH2 (N-terminus assumed; SMILES CCCCCCCCCCCCCCCC(=O)N[C@@H](CCC(=O)NCCCC[C@H](NC(=O)[C@H](CCC(N)=O)NC(=O)[C@@H](NC(=O)[C@H](CO)NC(=O)[C@H](CC(C)C)NC(=O)[C@H](CC(=O)O)NC(=O)[C@H](CO)NC(=O)[C@@H](NC(=O)[C@H](Cc1ccccc1)NC(=O)[C@@H](NC(=O)CNC(=O)[C@H](CCC(=O)O)NC(=O)C(C)(C)NC(=O)[C@@H](N)Cc1ccc(O)cc1)[C@@H](C)O)[C@@H](C)O)[C@@H](C)CC)C(=O)N[C@@H](CCC(=O)O)C(=O)N[C@@H](CCC(=O)O)C(=O)N[C@@H](CCC(N)=O)C(=O)N[C@@H](C)C(=O)N[C@@H](C)C(=O)N[C@@H](Cc1c[nH]cn1)C(=O)N[C@@H](CCC(=O)O)C(=O)N[C@@H](Cc1ccccc1)C(=O)N[C@H](C(=O)N[C@@H](CCC(=O)O)C(=O)N[C@@H](Cc1c[nH]c2ccccc12)C(=O)N[C@@H](CC(C)C)C(=O)N[C@@H](CCCCN)C(=O)N[C@@H](CCCNC(=N)N)C(=O)NC(C)(C)C(=O)NCC(=O)N1CCC[C@H]1C(=O)N[C@@H](CO)C(=O)N[C@@H](CO)C(=O)NCC(=O)N[C@@H](C)C(=O)N1CCC[C@H]1C(=O)N1CCC[C@H]1C(=O)N1CCC[C@H]1C(=O)N[C@@H](CO)C(N)=O)[C@@H](C)CC)C(=O)O) [exendin-4 peptide analogue SEQ ID NO: 38] | 22.5 | 0.009 | 0.0074
Y[Aib]QGTFTSDLSKQK([γGlu-Palmitoyl])ESKAAQDFIEWLKAGGPSSGAPPPS-NH2 (N-terminus assumed; SMILES CCCCCCCCCCCCCCCC(=O)N[C@@H](CCC(=O)NCCCC[C@H](NC(=O)[C@H](CCC(N)=O)NC(=O)[C@H](CCCCN)NC(=O)[C@H](CO)NC(=O)[C@H](CC(C)C)NC(=O)[C@H](CC(=O)O)NC(=O)[C@H](CO)NC(=O)[C@@H](NC(=O)[C@H](Cc1ccccc1)NC(=O)[C@@H](NC(=O)CNC(=O)[C@H](CCC(N)=O)NC(=O)C(C)(C)NC(=O)[C@@H](N)Cc1ccc(O)cc1)[C@@H](C)O)[C@@H](C)O)C(=O)N[C@@H](CCC(=O)O)C(=O)N[C@@H](CO)C(=O)N[C@@H](CCCCN)C(=O)N[C@@H](C)C(=O)N[C@@H](C)C(=O)N[C@@H](CCC(N)=O)C(=O)N[C@@H](CC(=O)O)C(=O)N[C@@H](Cc1ccccc1)C(=O)N[C@H](C(=O)N[C@@H](CCC(=O)O)C(=O)N[C@@H](Cc1c[nH]c2ccccc12)C(=O)N[C@@H](CC(C)C)C(=O)N[C@@H](CCCCN)C(=O)N[C@@H](C)C(=O)NCC(=O)NCC(=O)N1CCC[C@H]1C(=O)N[C@@H](CO)C(=O)N[C@@H](CO)C(=O)NCC(=O)N[C@@H](C)C(=O)N1CCC[C@H]1C(=O)N1CCC[C@H]1C(=O)N1CCC[C@H]1C(=O)N[C@@H](CO)C(N)=O)[C@@H](C)CC)C(=O)O) [exendin-4 peptide analogue SEQ ID NO: 39] | 0.0192 | 0.0045 | 0.0385
Y[Aib]QGTFTSDLSKQK([γGlu-Palmitoyl])ESKAAQEFIEWLKAGGPSSGAPPPS-NH2 (N-terminus assumed; SMILES CCCCCCCCCCCCCCCC(=O)N[C@@H](CCC(=O)NCCCC[C@H](NC(=O)[C@H](CCC(N)=O)NC(=O)[C@H](CCCCN)NC(=O)[C@H](CO)NC(=O)[C@H](CC(C)C)NC(=O)[C@H](CC(=O)O)NC(=O)[C@H](CO)NC(=O)[C@@H](NC(=O)[C@H](Cc1ccccc1)NC(=O)[C@@H](NC(=O)CNC(=O)[C@H](CCC(N)=O)NC(=O)C(C)(C)NC(=O)[C@@H](N)Cc1ccc(O)cc1)[C@@H](C)O)[C@@H](C)O)C(=O)N[C@@H](CCC(=O)O)C(=O)N[C@@H](CO)C(=O)N[C@@H](CCCCN)C(=O)N[C@@H](C)C(=O)N[C@@H](C)C(=O)N[C@@H](CCC(N)=O)C(=O)N[C@@H](CCC(=O)O)C(=O)N[C@@H](Cc1ccccc1)C(=O)N[C@H](C(=O)N[C@@H](CCC(=O)O)C(=O)N[C@@H](Cc1c[nH]c2ccccc12)C(=O)N[C@@H](CC(C)C)C(=O)N[C@@H](CCCCN)C(=O)N[C@@H](C)C(=O)NCC(=O)NCC(=O)N1CCC[C@H]1C(=O)N[C@@H](CO)C(=O)N[C@@H](CO)C(=O)NCC(=O)N[C@@H](C)C(=O)N1CCC[C@H]1C(=O)N1CCC[C@H]1C(=O)N1CCC[C@H]1C(=O)N[C@@H](CO)C(N)=O)[C@@H](C)CC)C(=O)O) [exendin-4 peptide analogue SEQ ID NO: 40] | 0.0226 | 0.0055 | 0.0536
Y[Aib]QGTFTSDLSKQK([γGlu-Stearoyl])DSKAAQDFIEWLKAGGPSSGAPPPS-NH2 (N-terminus assumed; SMILES CCCCCCCCCCCCCCCCCC(=O)N[C@@H](CCC(=O)NCCCC[C@H](NC(=O)[C@H](CCC(N)=O)NC(=O)[C@H](CCCCN)NC(=O)[C@H](CO)NC(=O)[C@H](CC(C)C)NC(=O)[C@H](CC(=O)O)NC(=O)[C@H](CO)NC(=O)[C@@H](NC(=O)[C@H](Cc1ccccc1)NC(=O)[C@@H](NC(=O)CNC(=O)[C@H](CCC(N)=O)NC(=O)C(C)(C)NC(=O)[C@@H](N)Cc1ccc(O)cc1)[C@@H](C)O)[C@@H](C)O)C(=O)N[C@@H](CC(=O)O)C(=O)N[C@@H](CO)C(=O)N[C@@H](CCCCN)C(=O)N[C@@H](C)C(=O)N[C@@H](C)C(=O)N[C@@H](CCC(N)=O)C(=O)N[C@@H](CC(=O)O)C(=O)N[C@@H](Cc1ccccc1)C(=O)N[C@H](C(=O)N[C@@H](CCC(=O)O)C(=O)N[C@@H](Cc1c[nH]c2ccccc12)C(=O)N[C@@H](CC(C)C)C(=O)N[C@@H](CCCCN)C(=O)N[C@@H](C)C(=O)NCC(=O)NCC(=O)N1CCC[C@H]1C(=O)N[C@@H](CO)C(=O)N[C@@H](CO)C(=O)NCC(=O)N[C@@H](C)C(=O)N1CCC[C@H]1C(=O)N1CCC[C@H]1C(=O)N1CCC[C@H]1C(=O)N[C@@H](CO)C(N)=O)[C@@H](C)CC)C(=O)O) [exendin-4 peptide analogue SEQ ID NO: 41] | 0.0265 | 0.0241 | 0.186
Y[Aib]QGTFTSDLSIQK([γGlu-Palmitoyl])EK[Aib]AA[Aib]EFIEWLKNTGPSSGAPPPS-NH2 (N-terminus assumed; SMILES CCCCCCCCCCCCCCCC(=O)N[C@@H](CCC(=O)NCCCC[C@H](NC(=O)[C@H](CCC(N)=O)NC(=O)[C@@H](NC(=O)[C@H](CO)NC(=O)[C@H](CC(C)C)NC(=O)[C@H](CC(=O)O)NC(=O)[C@H](CO)NC(=O)[C@@H](NC(=O)[C@H](Cc1ccccc1)NC(=O)[C@@H](NC(=O)CNC(=O)[C@H](CCC(N)=O)NC(=O)C(C)(C)NC(=O)[C@@H](N)Cc1ccc(O)cc1)[C@@H](C)O)[C@@H](C)O)[C@@H](C)CC)C(=O)N[C@@H](CCC(=O)O)C(=O)N[C@@H](CCCCN)C(=O)NC(C)(C)C(=O)N[C@@H](C)C(=O)N[C@@H](C)C(=O)NC(C)(C)C(=O)N[C@@H](CCC(=O)O)C(=O)N[C@@H](Cc1ccccc1)C(=O)N[C@H](C(=O)N[C@@H](CCC(=O)O)C(=O)N[C@@H](Cc1c[nH]c2ccccc12)C(=O)N[C@@H](CC(C)C)C(=O)N[C@@H](CCCCN)C(=O)N[C@@H](CC(N)=O)C(=O)N[C@H](C(=O)NCC(=O)N1CCC[C@H]1C(=O)N[C@@H](CO)C(=O)N[C@@H](CO)C(=O)NCC(=O)N[C@@H](C)C(=O)N1CCC[C@H]1C(=O)N1CCC[C@H]1C(=O)N1CCC[C@H]1C(=O)N[C@@H](CO)C(N)=O)[C@@H](C)O)[C@@H](C)CC)C(=O)O) [exendin-4 peptide analogue SEQ ID NO: 9] | 0.445 | 0.0055 | 0.009
Y[Aib]EGTFTSDLSIQK([γGlu-Stearoyl])ESKAAQEFIEWLKAGGPSSGAPPPS-NH2 (N-terminus assumed; SMILES CCCCCCCCCCCCCCCCCC(=O)N[C@@H](CCC(=O)NCCCC[C@H](NC(=O)[C@H](CCC(N)=O)NC(=O)[C@@H](NC(=O)[C@H](CO)NC(=O)[C@H](CC(C)C)NC(=O)[C@H](CC(=O)O)NC(=O)[C@H](CO)NC(=O)[C@@H](NC(=O)[C@H](Cc1ccccc1)NC(=O)[C@@H](NC(=O)CNC(=O)[C@H](CCC(=O)O)NC(=O)C(C)(C)NC(=O)[C@@H](N)Cc1ccc(O)cc1)[C@@H](C)O)[C@@H](C)O)[C@@H](C)CC)C(=O)N[C@@H](CCC(=O)O)C(=O)N[C@@H](CO)C(=O)N[C@@H](CCCCN)C(=O)N[C@@H](C)C(=O)N[C@@H](C)C(=O)N[C@@H](CCC(N)=O)C(=O)N[C@@H](CCC(=O)O)C(=O)N[C@@H](Cc1ccccc1)C(=O)N[C@H](C(=O)N[C@@H](CCC(=O)O)C(=O)N[C@@H](Cc1c[nH]c2ccccc12)C(=O)N[C@@H](CC(C)C)C(=O)N[C@@H](CCCCN)C(=O)N[C@@H](C)C(=O)NCC(=O)NCC(=O)N1CCC[C@H]1C(=O)N[C@@H](CO)C(=O)N[C@@H](CO)C(=O)NCC(=O)N[C@@H](C)C(=O)N1CCC[C@H]1C(=O)N1CCC[C@H]1C(=O)N1CCC[C@H]1C(=O)N[C@@H](CO)C(N)=O)[C@@H](C)CC)C(=O)O) [exendin-4 peptide analogue SEQ ID NO: 42] | 8.47 | 0.0062 | 0.0129
